The record followed here is the supplement of paper PMC7877785.

± gives the uncertainty stated by the source.

A short description of this data set: self-splicing fitness, log relative to wild type (ln ratio); higher = more splicing; Tetrahymena group I intron in knt gene, E. coli kanamycin selection, DiMSum; sequences stand for … in CUCUCU…GGAGGGAAAAGUUAUCAGGCAUGCACCUGGUAGCUAGUCUUUAAACCAAUAGAUUGCAUCGGUUUAAAAGGCAAGACCGUCAAAUUGCGGGAAAGGGGUCAACAGCCGUUCAGUACCAAGUCUCAGGGGAAACUUUGAGAUGGCCUUGCAAAGGGUAUGGUAAUAAGCUGACGGACAUGGUCCUAACCACGCAGCCAAGUCCUAAGUCAACAGAUCUUCUGUUGAUAUGGAUGCAGUUCACAGACUAAAUGUCGGUCGGGGAAGAUGUAUUCUUCUCAUAAGAUAUAGUCGGACCUCUCCUUAAUGGGAGCUAGCGGAUGAAGUGAUGCAACACUGGAGCCGCUGGGAACUAAUUUGUAUGCGAAAGUAUAUUGAUUAGUUUUGGAGUACUCGUGGUCG
In outline: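 Pooled colonies went to amplicon sequencing on an Illumina HiSeq 2500 after six replicate transformations. The plates were LB agar with 100 μg/mL carbenicillin, 50 μM IPTG and 0.2% rhamnose, with or without 25 μg/mL kanamycin, incubated overnight at 37°C or 30°C. The E. coli BL21(DE3) library had all eight P1ex-region intron nucleotides randomised, the intron placed in the knt kanamycin-resistance gene on pET-22b(+). DiMSum fitness is the error-weighted combination of replicate fold changes, kanamycin against none, normalised to wild type.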

On to CCGAAGCAAUAUUACGCUCA, for which the “self-splicing fitness (ln)” value is, setting by setting: (30 °C) -3.65 ± 0.33; (37 °C) -3.47 ± 0.42.

In the case of CCGAAGCAAUAUUACGGAAC, the “self-splicing fitness (ln)” value is -2.82 ± 0.28 (30 °C) and -2.03 ± 0.26 (37 °C).

On to CCGAAGCAAUAUUACGGACA, for which, under “37 °C”, the “self-splicing fitness (ln)” value is -1.57 ± 0.2.

On to CCGAAGCAAUAUUACGGAUA, for which the “self-splicing fitness (ln)” value (37 °C) is -1.18 ± 0.2.

Regarding CCGAAGCAAUAUUACGGUGG, the “self-splicing fitness (ln)” value is -4.27 ± 0.24 (30 °C) and -1.35 ± 0.11 (37 °C).

For the sequence CCGAAGCAAUAUUACGGUGU, the “self-splicing fitness (ln)” value is -3.91 ± 0.21 (30 °C) and -2.09 ± 0.14 (37 °C).

In the case of CCGAAGCAAUAUUACGGUUC, the “self-splicing fitness (ln)” value by setting is: (30 °C) -3.74 ± 0.26; (37 °C) -2.66 ± 0.2.

In the case of CCGAAGCAAUAUUACGGUUU, the “self-splicing fitness (ln)” value is -4.44 ± 0.25 (30 °C) and -2.23 ± 0.17 (37 °C).

With CCGAAGCAAUAUUACGUAAC, the “self-splicing fitness (ln)” value (30 °C) is -4.94 ± 0.34 and the “self-splicing fitness (ln)” value (37 °C) was -1.67 ± 0.2.

Take CCGAAGCAAUAUUACGUACU: the “self-splicing fitness (ln)” value is -3.91 ± 0.27 (30 °C) and -2.39 ± 0.19 (37 °C).

Consider CCGAAGCAAUAUUACGUCAC, for which the “self-splicing fitness (ln)” value (30 °C) was -3.29 ± 0.35.

Regarding CCGAAGCAAUAUUACGUCAU, the “self-splicing fitness (ln)” value by setting is: (30 °C) -4.87 ± 0.42; (37 °C) -3.03 ± 0.33.

CCGAAGCAAUAUUACGUGAG: the “self-splicing fitness (ln)” value was -1 ± 0.065 (30 °C) and -0.698 ± 0.084 (37 °C).

Consider CCGAAGCAAUAUUACGUUAC, for which the “self-splicing fitness (ln)” value (30 °C) was -3.03 ± 0.16 and the “self-splicing fitness (ln)” value (37 °C) is -2.43 ± 0.26.

Take CCGAAGCAAUAUUACGUUAG: the “self-splicing fitness (ln)” value was -1.97 ± 0.093 (30 °C) and -0.908 ± 0.082 (37 °C).

Take CCGAAGCAAUAUUACGUUGG: the “self-splicing fitness (ln)” value reads like this: (30 °C) -3.26 ± 0.19; (37 °C) -2.16 ± 0.19.

For CCGCAGCAAUAUUACGAAAG, the “self-splicing fitness (ln)” value reads like this: (30 °C) -0.925 ± 0.066; (37 °C) 0.125 ± 0.084.

For CCGCAGCAAUAUUACGAAAU, the “self-splicing fitness (ln)” value runs as follows: (30 °C) -3.66 ± 0.32; (37 °C) -3.38 ± 0.33.

In the case of CCGCAGCAAUAUUACGAACA, the “self-splicing fitness (ln)” value (30 °C) is -2.19 ± 0.27.

Regarding CCGCAGCAAUAUUACGACCU, the “self-splicing fitness (ln)” value by setting is: (30 °C) -3.36 ± 0.23; (37 °C) -2.63 ± 0.29.

For the sequence CCGCAGCAAUAUUACGACGC, the “self-splicing fitness (ln)” value is -3.71 ± 0.35 (30 °C) and -2.74 ± 0.27 (37 °C).

For the sequence CCGCAGCAAUAUUACGACUG, the “self-splicing fitness (ln)” value (30 °C) was -3.17 ± 0.14 and the “self-splicing fitness (ln)” value (37 °C) is -1.71 ± 0.13.

For CCGCAGCAAUAUUACGAGCC, the “self-splicing fitness (ln)” value was -3.64 ± 0.23 (30 °C) and -2.09 ± 0.2 (37 °C).

On to CCGCAGCAAUAUUACGAGGG, for which the “self-splicing fitness (ln)” value (30 °C) was -1.99 ± 0.091 and the “self-splicing fitness (ln)” value (37 °C) is -2.71 ± 0.19.

Take CCGCAGCAAUAUUACGAGUG: the “self-splicing fitness (ln)” value was -0.193 ± 0.052 (30 °C) and -0.212 ± 0.069 (37 °C).

Turning to CCGCAGCAAUAUUACGAUAA, the “self-splicing fitness (ln)” value (30 °C) is -2 ± 0.19 and the “self-splicing fitness (ln)” value (37 °C) was -1.2 ± 0.24.

Turning to CCGCAGCAAUAUUACGAUUU, the “self-splicing fitness (ln)” value (30 °C) was -3.28 ± 0.14 and the “self-splicing fitness (ln)” value (37 °C) was -2.22 ± 0.15.

For CCGCAGCAAUAUUACGCAGG, the “self-splicing fitness (ln)” value is -2.77 ± 0.11 (30 °C) and -2.93 ± 0.2 (37 °C).

Consider CCGCAGCAAUAUUACGCCGA, for which the “self-splicing fitness (ln)” value (30 °C) was -2.35 ± 0.19 and the “self-splicing fitness (ln)” value (37 °C) was -1.42 ± 0.14.

For CCGCAGCAAUAUUACGGACU, the “self-splicing fitness (ln)” value reads like this: (30 °C) -3.14 ± 0.17; (37 °C) -2.31 ± 0.25.

CCGCAGCAAUAUUACGGAUA: the “self-splicing fitness (ln)” value by setting is: (30 °C) -4.16 ± 0.22; (37 °C) -2.91 ± 0.23.

For CCGCAGCAAUAUUACGGAUC, the “self-splicing fitness (ln)” value (37 °C) is -2.39 ± 0.41.

With CCGCAGCAAUAUUACGGGAA, the “self-splicing fitness (ln)” value is -4.03 ± 0.28 (30 °C) and -2.71 ± 0.23 (37 °C).

In the case of CCGCAGCAAUAUUACGGUAA, the “self-splicing fitness (ln)” value reads like this: (30 °C) -3.69 ± 0.27; (37 °C) -1.99 ± 0.18.

In the case of CCGCAGCAAUAUUACGGUCG, the “self-splicing fitness (ln)” value reads like this: (30 °C) -0.439 ± 0.053; (37 °C) 0.0144 ± 0.066.

Turning to CCGCAGCAAUAUUACGUAAC, the “self-splicing fitness (ln)” value is -3.86 ± 0.3 (30 °C) and -2.7 ± 0.29 (37 °C).

As to CCGCAGCAAUAUUACGUACG, the “self-splicing fitness (ln)” value is, setting by setting: (30 °C) -0.247 ± 0.058; (37 °C) 0.254 ± 0.069.

For the sequence CCGCAGCAAUAUUACGUAUC, the “self-splicing fitness (ln)” value was -4.05 ± 0.28 (30 °C) and -1.91 ± 0.2 (37 °C).

Turning to CCGCAGCAAUAUUACGUCGU, the “self-splicing fitness (ln)” value (30 °C) was -4.02 ± 0.17 and the “self-splicing fitness (ln)” value (37 °C) was -2.79 ± 0.15.
